Test results from PMC9287727, “Structural snapshots of nitrosoglutathione binding and reactivity underlying S-nitrosylation of photosynthetic GAPDH” (Redox Biology, 2022).

B1: photosynthetic glyceraldehyde-3-phosphate dehydrogenase from Chlamydomonas reinhardtii (CrGAPA) (enzyme, UniProt P50362 35-374, looked up)
chain: EKKIRVAINGFGRIGRNFLRCWHGRQNTLLDVVAINDSGGVKQASHLLKYDSTLGTFAADVKIVDDSHISVDGKQIKIVSSRDPLQLPWKEMNIDLVIEGTGVFIDKVGAGKHIQAGASKVLITAPAKDKDIPTFVVGVNEGDYKHEYPIISNASCTTNCLAPFVKVLEQKFGIVKGTMTTTHSYTGDQRLLDASHRDLRRARAAALNIVPTTTGAAKAVSLVLPSLKGKLNGIALRVPTPTVSVVDLVVQVEKKTFAEEVNAAFREAANGPMKGVLHVEDAPLVSIDFKCTDQSTSIDASLTMVMGDDMVKVVAWYDNEWGYSQRVVDLAEVTAKKWVA
notes: Glyceraldehyde-3-phosphate dehydrogenase A, chloroplastic (GAPA), Chlamydomonas reinhardtii; mature protein; Homotetramer of A-type subunits; also called NADP-CrGAPA; NAD-CrGAPA
B2: oxidized NADP+-CrGAPA (catalytic Cys149 oxidized to sulphinate/sulphonate) (enzyme, Chlamydomonas reinhardtii, UniProt P50362 35-374, looked up)
chain: EKKIRVAINGFGRIGRNFLRCWHGRQNTLLDVVAINDSGGVKQASHLLKYDSTLGTFAADVKIVDDSHISVDGKQIKIVSSRDPLQLPWKEMNIDLVIEGTGVFIDKVGAGKHIQAGASKVLITAPAKDKDIPTFVVGVNEGDYKHEYPIISNASCTTNCLAPFVKVLEQKFGIVKGTMTTTHSYTGDQRLLDASHRDLRRARAAALNIVPTTTGAAKAVSLVLPSLKGKLNGIALRVPTPTVSVVDLVVQVEKKTFAEEVNAAFREAANGPMKGVLHVEDAPLVSIDFKCTDQSTSIDASLTMVMGDDMVKVVAWYDNEWGYSQRVVDLAEVTAKKWVA
modifications: Cys149 oxidized to sulphinate/sulphonate (-SO2-/-SO3-)
notes: Glyceraldehyde-3-phosphate dehydrogenase A, chloroplastic (GAPA), Chlamydomonas reinhardtii; mature protein; Same construct as m1; Cys149 found oxidized in crystals grown in 0.1 M Bicine pH 9.5 with NADP+

Legend:
[1] = molecular target: the molecule itself; assay: crystal structure; CrGAPA with 1 mM NADP+ or NAD+, hanging drop at 293 K, 1.2-1.6 M (NH4)2SO4, 0.1 M Tris-HCl pH 7.5-8.5; dimer in the asymmetric unit, tetramer by a crystallographic 2-fold axis
[2] = molecular target: the molecule itself; assay: crystal structure; oxidized NADP+-CrGapA, hanging drop at 293 K, 1.2-1.6 M (NH4)2SO4, 0.1 M Bicine pH 9.5; dimer in the asymmetric unit, tetramer by a crystallographic 2-fold axis

Protein | stoichiometry N [1] | stoichiometry N [2]
B1 | 4 | 
B2 |  | 4
